Earlier results on 30 molecules are cited in patent US12065466B2, “Methods and compositions for protein sequencing” (Quantum-Si Incorporated, priority 2020, dated 2024).

Substitutions are numbered along the chain they refer to.

This data set relates to amino acid at a terminal position of a polypeptide. The following applies: Table 2; amino acid identity at a terminal position (phosphotyrosine also internal); inferred from literature and/or demonstrated by the inventors; cited from earlier work.

B1: PS509: UBR-box domain homolog, SEQ ID NO: 137 (protein)
chain: MICGHGFKTGEPTYSCRDCATDPTCVLCISCFQKSPHREHRYKMSASGGGGYCDCGDPEAWKIEPFCEQHKP
modifications: Lottia gigantean
As to B1, the “Binding Pref.” value was “K, R, H”.

B2: PS530: UBR-box domain homolog, SEQ ID NO: 158 (protein, listed as Acropora millepora)
chain: MLCGKVFKVGEPTYSCRDCGYDNTCVLCINCFQKSIHKNHHYKMNTSGGGGVCDCGDVEAWKEGEACEIHQQ
Take B2: the “Binding Pref.” value was “K, R, H”.

B3: PS513: UBR-box domain homolog, SEQ ID NO: 141 (protein, listed as Pyrenophora seminiperda)
chain: MPCGHIFKNGEATYRCKTCTADDTCVLCARCFDASDHEGHQVFVSVSPGNSGCCDCGDDEAWVRPVHCNIHSA
B3: the “Binding Pref.” value is “K, R, H”.

B4: PS507: UBR-box domain homolog, SEQ ID NO: 135 (protein, listed as Sparassis crispa)
chain: MPCGHIFKKGESCFRCKDCALDDSCVLCSKCFEATDHANHNVSFFIAQQSGGCCDCGDIEAWLVPIDCPFHPV
In the case of B4, the “Binding Pref.” value was “K, R, H”.

B5: PS525: UBR-box domain homolog, SEQ ID NO: 153 (protein, listed as Mus musculus)
chain: MLCGKVFKSGETTYSCRDCAIDPTCVLCMDCFQSSVHKNHRYKMHTSTGGGFCDCGDTEAWKTGPFCVDHEP
In the case of B5, the “Binding Pref.” value is “K, R, H”.

B6: PS529: UBR-box domain homolog, SEQ ID NO: 157 (protein)
chain: B5 chain with S9G, S34N, V36I, F66L, V68A, D69N
modifications: Chelonia mydas
As to B6, the “Binding Pref.” value is “K, R, H”.

B7: PS524: UBR-box domain homolog, SEQ ID NO: 152 (protein, listed as Drosophila ficusphila)
chain: MVCGKVFKNGEPTYSCRECGVDPTCVLCVNCFKRSAHRFHKYKMSTSGGGGCCDCGDDEAWKKDHYCQLHLA
As to B7, the “Binding Pref.” value is “K, R, H”.

B8: PS531: UBR-box domain homolog, SEQ ID NO: 159 (protein, listed as Musca domestica)
chain: B7 chain with N9I, V21M, P23Q, R34Q, F39Y, D58E, Q68E, L69E, A72R
As to B8, the “Binding Pref.” value is “K, R, H”.

B9: PS506: UBR-box domain homolog, SEQ ID NO: 134 (protein, listed as Capitella teleta)
chain: MLCGKVFKMGELTYSCRDCGTDPTCVLCMDCFQHSAHKKHRYKMAASGGGGYCDCGDREAWKAEPFCDVHKR
Turning to B9, the “Binding Pref.” value was “K, R, H”.

B10: PS511: UBR-box domain homolog, SEQ ID NO: 139 (protein, listed as Habropoda laboriosa)
chain: MICGKVFKMGEATYSCKECGVDPTCVLCADCFKQSAHRHHKYRMGTSSGGGFCDCGDIEAWKKEPFCNTHLA
In the case of B10, the “Binding Pref.” value was “K, R, H”.

B11: PS532: UBR-box domain homolog, SEQ ID NO: 160 (protein, listed as Schizosaccharomyces cryophilus)
chain: MSCGRIFKKGEVFYRCKTCSVDSNSALCVKCFRATDHHGHETSFTISAGSGGCCDCGNSAAWIRDMPCKIHNR
B11: the “Binding Pref.” value is recorded as “K, R, H”.

B12: PS514: UBR-box domain homolog, SEQ ID NO: 142 (protein, listed as Tribolium castaneum)
chain: MVCGRVFKLGEPTYSCRECGMDNTCVLCVNCFKNSEHRFHKYKMGTSQGGGCCDCGDVEAWKKAPFCDVHIA
Consider B12, for which the “Binding Pref.” value is “K, R, H”.

B13: PS527: UBR-box domain homolog, SEQ ID NO: 155 (protein, listed as Mizuhopecten yessoensis)
chain: MLCGKVFKYGEPTYSCRDCANDPTCVLCIDCFQKSAHKKHRYKMSTSGGGGYCDCGDSEAWKTAPFCSNHKA
For the molecule B13, the “Binding Pref.” value is “K, R, H”.

B14: PS516: UBR-box domain homolog, SEQ ID NO: 144 (protein)
chain: MLCGKVFKTGEPTYSCRDCANDPTCVLCIDCFQNGAHKNHRYKMNTSGGGGYCDCGDQEAWTSHPFCNLHSP
modifications: Crassostrea gigas
Regarding B14, the “Binding Pref.” value is listed as “K, R, H”.

B15: PS501: UBR-box domain homolog, SEQ ID NO: 129 (protein, listed as Amanita thiersii)
chain: MICGQIIGKGESCFRCRDCGLDESCVMCSQCFHATDHINHNVSFFVSQQPGGCCDCGDEEAWKKPMNCPYHPP
Regarding B15, the “Binding Pref.” value is listed as “K, R, H”.

B16: PS510: UBR-box domain homolog, SEQ ID NO: 138 (protein, listed as Camponotus floridanus)
chain: MICGRMFKMGEPTYSCRQCGMDSTCVLCVDCFKQSAHRNHKYKMGTSSGGGCCDCGDTEAWKNEPFCKIHLA
On to B16, for which the “Binding Pref.” value is recorded as “K, R, H”.

B17: PS515: UBR-box domain homolog, SEQ ID NO: 143 (protein, listed as Wasmannia auropunctata)
chain: B16 chain with R5K, M9I, Q18E, N63K, I69T, L71V, A72V
As to B17, the “Binding Pref.” value was “K, R, H”.

B18: PS504: UBR-box domain homolog, SEQ ID NO: 132 (protein, listed as Galleria mellonella)
chain: MLCGKVFKQGEPAYSCRECGMDNTCVLCVECFKVSPHRHHKYKMGQSGGGGCCDCGDTEAWKRDPFCERHAK
In the case of B18, the “Binding Pref.” value is reported as “K, R, H”.

B19: PS519: UBR-box domain homolog, SEQ ID NO: 147 (protein, listed as Manduca sexta)
chain: B18 chain with K5R, P36A, R69L, K72A
Turning to B19, the “Binding Pref.” value is on record as “K, R, H”.

B20: PS517: UBR-box domain homolog, SEQ ID NO: 145 (protein)
chain: MMCGRVFKMGEPTYSCRECGVDSTCVLCVGCFQQSAHRDHKYKMGTSGGGGCCDCGDTEAWKRDPFCEIHMV
modifications: Harpegnathos saltator
Take B20: the “Binding Pref.” value is given as “K, R, H”.

B21: PS503: UBR-box domain homolog, SEQ ID NO: 131 (protein, listed as Hydra vulgaris)
chain: MFCGRLFKVGDPTYTCKDCAADPTCVFCHDCFHQSVHTKHKYKLFASQGRGGYCDCGDKEAWTNDPACNKHKE
As for B21, the “Binding Pref.” value was “K, R, H”.

B22: PS521: UBR-box domain homolog, SEQ ID NO: 149 (protein)
chain: MLCGRVFRSGEPTYSCRDCAVDPTCVLCIDCFNNGAHRKHKYRMSTSSGGGYCDCGDKEAWKTDPLCEIHRK
modifications: Lingula anatine
Regarding B22, the “Binding Pref.” value is “K, R, H”.

B23: PS518: UBR-box domain homolog, SEQ ID NO: 146 (protein, listed as Nilaparvata lugens)
chain: MVCGRVFKMGEPSYHCRECGMDATCVLCVDCFKKSSHRNHKYKMGTSIGGGCCDCGDVEAWKTEPYCEVHIA
Take B23: the “Binding Pref.” value is listed as “K, R, H”.

B24: Saccharomyces cerevisiae GID10: SEQ ID NO: 125 (protein, listed as Saccharomyces cerevisiae)
chain: MTSLNIMGRKFILERAKRNDNIEEIYTSAYVSLPSSTDTRLPHFKAKEEDCDVYEEGTNLVGKNAKYTYRSLGRHLDFLRPGLRFGGSQSSKYTYYTVEVKIDTVNLPLYKDSRSLDPHVTGTFTIKNLTPVLDKVVTLFEGYVINYNQFPLCSLHWPAEETLDPYMAQRESDCSHWKRFGHFGSDNWSLTERNFGQYNHESAEFMNQRYIYLKWKERFLLDDEEQENQMLDDNHHLEGASFEGFYYVCLDQLTGSVEGYYYHPACELFQKLELVPTNCDALNTYSSGFEIA
B24: the “Binding Pref.” value is on record as “P, M, V”.

B25: PS508: UBR-box domain homolog, SEQ ID NO: 136 (protein)
chain: MLCGRVFKEGETVYSCRDCAIDPTCVLCIECFQKSVHKSHRYKMHASAGGGFCDCGDLEAWKTGPCCSQHDP
modifications: Anabarilius graham
As for B25, the “Binding Pref.” value is recorded as “K, R, H”.

B26: PS520: UBR-box domain homolog, SEQ ID NO: 148 (protein, listed as Monopterus albus)
chain: B25 chain with I29M, E30D, K34D, A48S, L58V, T63I, Q69K
Take B26: the “Binding Pref.” value was “K, R, H”.

B27: PS526: UBR-box domain homolog, SEQ ID NO: 154 (protein, listed as Maylandia zebra)
chain: B25 chain with I29M, E30D, K34D, A48S, L58V, T63I, C66Y, Q69K
Turning to B27, the “Binding Pref.” value is reported as “K, R, H”.

B28: PS512: UBR-box domain homolog, SEQ ID NO: 140 (protein, listed as Mastacembelus armatus)
chain: B25 chain with I29M, E30D, K34D, L58V, T63I, C66Y, Q69K
For the molecule B28, the “Binding Pref.” value is given as “K, R, H”.

B29: PS502: UBR-box domain homolog, SEQ ID NO: 130 (protein, listed as Helobdella robusta)
chain: MVCLKVFKLGEPTYSCRSVTCGMDPTCVLCVDCFQNSSHKLHKYKMSTSGGGGYCDCGDLEAWKADPLCDLHKL
As for B29, the “Binding Pref.” value is “K, R, H”.

B30: PS523: UBR-box domain homolog, SEQ ID NO: 151 (protein)
chain: MAKSHRHTGRNCGRAFQPGEPLYRCQECAYDDTCVLCISCFNPDDHVNHHVSTHICNELHDGICDCGDAEAWNVPLHCKAEED
modifications: Saccharomycetaceae sp. Ashbya aceri
Turning to B30, the “Binding Pref.” value is listed as “K, R, H”.
